We go through one substance from paper doi:10.1101/2019.12.26.888669.

The term stoichiometry N denotes a count of units in the complex or per binding partner.

The experiment has as its target Escherichia coli thiol peroxidase, oxidized (disulfide) state (Escherichia coli) (UniProt P0A862). Put plainly: SEC-MALS. For orientation: In gel filtration, larger molecules generally elute earlier.

In the case of “Escherichia coli thiol peroxidase, oxidized (disulfide) state (from UniProt P0A862 1-168) (enzyme)”, the stoichiometry N amounted to 3.
